# From PMC3299299, “Recombinant Expression and Characterization of Human and Murine ACE2: Species-Specific Activation of the Alternative Renin-Angiotensin-System” (International Journal of Hypertension, 2012)
# Experiments:
# Assay type in all cases: biochemical
# Ang 1–8 = experiment: In vitro kinetic assay, Ang 1–8 cleavage to Ang 1–7, HPLC quantification; conditions: ratio of k cat of the same enzyme for the two substrates
# Method: (§1) Enzyme reactions were started by adding a defined amount of enzyme to substrate dilutions in MES-buffer (50 mM MES, 300 mM NaCl, 10 μM ZnCl2, 0.01% Brij-35, pH 6.5) which were previously equilibrated at 37°C. Aliquots of the reaction mixes were taken every 10 minutes and stopped by addition of 0.5 M EDTA to a final concentration of 100 mM before HPLC-based quantification of peptides.
# (§2) The concentration of peptides in enzymatic reactions was quantified by detection of peaks eluted from the HPLC column using an in-line diode array detector. Chromatography was performed by running a gradient on a reversed-phase matrix (Source 5RPC, 4.6×150 mm, 5 μm) with 0.08% H3PO4 in water as mobile phase A and 40% acetonitrile in water and 0.08% H3PO4 as mobile phase B. The optical density at 280 nm was recorded inline for all eluting peaks, and peptide concentrations were calculated via calibration curves for each individual peptide.
# The turnover rates for natural ACE2 substrates were determined by in vitro incubation with excess amounts of substrate followed by reversed-phase HPLC analysis. […] The resulting time courses are shown in the graphs. […] Each time point was analyzed in true triplicates and standard deviations are given in the graphs together with linear regressions of the measured values.
# Ang 1–10 = experiment: In vitro kinetic assay, Ang 1–10 cleavage to Ang 1–9, HPLC quantification
# Method: as §1, §2
# The turnover rates for natural ACE2 substrates were determined by in vitro incubation with excess amounts of substrate followed by reversed-phase HPLC analysis. […] Each time point was analyzed in true triplicates and standard deviations are given in the graphs together with linear regressions of the measured values.
# [1] = test system: human RAS in blood plasma; experiment: Ex vivo incubation of renin-spiked human plasma, RAS-Fingerprinting by LC-MS/MS; conditions: human plasma + 100 pg/mL recombinant human renin, 10 μM Lisinopril present, without or with 5 μg/mL enzyme, 10 min 37°C (Fig 3b); 0 = below quantification limit (2 pg/mL plasma)
# Method: Anticoagulated blood was collected from healthy volunteers, and plasma was separated by 10 minutes centrifugation at 3000 RCF. […] After 10 minutes of incubation at 37°C, in the presence or absence of Lisinopril (Sigma), samples were chilled on ice and immediately subjected to LC-MS/MS analysis.
# Plasma samples were spiked with 100 pg/mL stable-isotope-labeled internal standards and subjected to solid-phase extraction using Sep-Pak cartridges (Waters) according to manufacturers protocol. Following elution and solvent evaporation, samples were reconstituted in 50 μL 50% acetonitrile/0.1% formic acid and subjected to LC-MS/MS analysis using a reversed-phase analytical column (Luna C18, Phenomenex) using a gradient ranging from 10% acetonitrile/0.1% formic acid to 70% acetonitrile/0.1% formic acid in 9 minutes. The eluate was analyzed in line with a QTRAP-4000 mass spectrometer (AB Sciex) operated in the MRM mode using dwell times of 25 msec at a cone voltage of 4000 volts and a source temperature of 300°C. For each peptide and corresponding internal standards, two different mass transitions were measured. Angiotensin peptide concentrations were calculated by relating endogenous peptide signals to internal standard signals provided that integrated signals achieved a signal-to-noise ratio above 10.
# RAS-Fingerprints were measured by LC-MS/MS as indicated in Section 2. Samples were incubated in the absence (a) or presence (b) of 10 μM of the ACE inhibitor Lisinopril. In this figure, the diameter of the spheres reflects the concentration of the respective peptide metabolite, which is also given in pg/mL next to each individual sphere. 0 pg/mL indicates concentrations below quantification limits, which are defined by a signal-to-noise ratio below 10. Furthermore, the amino acid sequence of each angiotensin metabolite is schematically given in brackets beside the corresponding sphere. The sequence annotation is based on the decapeptide Angiotensin I (1–10) which is N- or C-terminally cleaved by the indicated proteases. […]
molecule,measurement,setting,value
rmACE2: extracellular domain of murine ACE2 recombinantly expressed in CHO cells (protein) QSLTEENAKTFLNNFNQEAEDLSYQSSLASWNYNTNITEENAQKMSEAAAKWSAFYEEQSKTAQSFSLQEIQTPIIKRQLQALQQSGSSALSADKNKQLNTILNTMSTIYSTGKVCNPKNPQECLLLEPGLDEIMATSTDYNSRLWAWEGWRAEVGKQLRPLYEEYVVLKNEMARANNYNDYGDYWRGDYEAEGADGYNYNRNQLIEDVERTFAEIKPLYEHLHAYVRRKLMDTYPSYISPTGCLPAHLLGDMWGRFWTNLYPLTVPFAQKPNIDVTDAMMNQGWDAERIFQEAEKFFVSVGLPHMTQGFWANSMLTEPADGRKVVCHPTAWDLGHGDFRIKMCTKVTMDNFLTAHHEMGHIQYDMAYARQPFLLRNGANEGFHEAVGEIMSLSAATPKHLKSIGLLPSDFQEDSETEINFLLKQALTIVGTLPFTYMLEKWRWMVFRGEIPKEQWMKKWWEMKREIVGVVEPLPHDETYCDPASLFHVSNDYSFIRYYTRTIYQFQFQEALCQAAKYNGSLHKCDISNSTEAGQKLLKMLSLGNSEPWTKALENVVGARNMDVKPLLNYFQPLFDWLKEQNRNSFVGWNTEWSPYADQSIKVRISLKSALGANAYEWTNNEMFLFRSSVAYAMRKYFSIIKNQTVPFLEEDVRVSDLKPRVSFYFFVTSPQNVSDVIPRSEVEDAIRMSRGRINDVFGLNDNSLEFLGIHPTLEPPYQPPVT,turnover number for Ang 1–8 compared to Ang 1–10,Ang 1–8,492 fold
same,Ang 1–10-related turnover rate of rmACE2 as share of the rate for rhACE2,Ang 1–10,7%
same,"k cat, Ang 1–10 ≥ Ang 1–9","Ang 1–10; […] enzyme, 65 μM Ang 1–10, MES buffer pH 6.5, 37°C, HPLC, mean of substrate degradation and product formation rates related to enzyme concentration, triplicates",0.0013 s⁻¹
same,Ang (1–7) concentration in plasma,[1],< 2 pg/mL
